Experimental data: the supplement of paper PMC10724198
± gives the standard deviation of the averaged measurements.

tested on: Saccharomyces cerevisiae; assay: protein stability index of tFT-peptide fusion (C-terminal peptide) (PSI (0-1 scale)); higher = more stable (slower turnover); conditions: genetic background: wild type; temperature: 30 C
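Further: PSI is a weighted mean of sequencing reads over stability bins, variants kept only with over 10 reads, mCherry proximal and sfGFP distal, peptide attached via GGGS linker.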

Sequence	protein stability index
FFSPPLPPAPLT	0.775 ± 0.057
RLEFSFHPFFLS	0.658 ± 0.02
PPFLPASHPAPS	0.824 ± 0.065
GLVDVYWVCIIV	0.6069 ± 0.0046
WSRSEIGDGSAG	0.742 ± 0.023
FTLRILSRPVIP	0.656 ± 0.046
GGDGGSDHHRER	0.6856 ± 0.0044
IPSLSLPLQTGS	0.64 ± 0.055
VLPLFSSFSRSP	0.674 ± 0.058
PADSRGNSPPPQ	0.675 ± 0.055
PPSRPPPPPPSP	0.702 ± 0.061
LNVVSRLLACGL	0.642 ± 0.022
VQLGLGPDSSRS	0.694 ± 0.019
PPPPPSVTRTQP	0.649 ± 0.043
PPPTSPPHPPSP	0.701 ± 0.083
KKKKKTQKKTKQ	0.6818 ± 0.0029
AWGPGCVVRGRE	0.7151 ± 0.0012
PPPPRPACLPSN	0.727 ± 0.018
LGVAMSKCLEFR	0.684 ± 0.0083
RSVGMFSCRPVW	0.698 ± 0.017
RVRLAPAPASIR	0.7458 ± 0.0047
VIPTYESNDRQS	0.652 ± 0.064
DILRSGVYDVCK	0.7251 ± 0.00083
QRLQVLIGYDRR	0.691 ± 0.039
TNNKKTRNHTSK	0.704 ± 0.03

Sequence	protein stability index
ALRVHVPPYVPA	0.6785 ± 0.0049
GMRGGGRAQDAR	0.6609 ± 0.002
AATGPPHPPSPP	0.804 ± 0.037
ITAATFCRRPAS	0.659 ± 0.12
TSLFVAGRVWRS	0.703 ± 0.014
WGRRGRRGSWGA	0.683 ± 0.024
GRFGIGLYLCFL	0.597 ± 0.094
LSCRLDGIVIWF	0.64 ± 0.051
SRPIPSPPPRPV	0.6473 ± 0.002
GWIGVFGLFGCG	0.752 ± 0.083
HRREEDQRPYSR	0.768 ± 0.021
QTNYSNQYKEKY	0.713 ± 0.11
PPLPPPPPDFSP	0.761 ± 0.18
WVTGASRLVGRE	0.766 ± 0.13
FMPRPSNRLSPS	0.723 ± 0.0078
LSPCVGGLFGVV	0.693 ± 0.017
RTVRRNPHGRPR	0.6832 ± 0.005
KQEDIKNKKKKE	0.679 ± 0.032
CSSRDGLLWRFR	0.731 ± 0.088
HGKGLKEKRVEG	0.672 ± 0.041
VGDCVVRGLWLS	0.639 ± 0.03
PPPSRLSPVICP	0.612 ± 0.01
IQSRGQEKKKRK	0.673 ± 0.0075
CLISDLRFVNKR	0.69 ± 0.056
SPTRNLPPFPPP	0.723 ± 0.054

Sequence	protein stability index
RNNLSLALPREW	0.725 ± 0.018
RYLFAAVSFGYA	0.726 ± 0.032
RSPPLTPPPCPS	0.6931 ± 0.005
PRPDPAPPAALP	0.6017 ± 0.0057
VFGGAGVGGDCG	0.669 ± 0.012
PLPLSSSLHSQR	0.702 ± 0.0084
SSCSDLTKRLQQ	0.669 ± 0.054
KVHQHPFLHALS	0.695 ± 0.012
GWCAPLGLLLVL	0.539 ± 0.031
SGCGVRFLLCRL	0.801 ± 0.065
VGVSWSMYCANW	0.631 ± 0.11
AGGGRGAEGCGG	0.783 ± 0.069
RGVSVRLSLAYR	0.6216 ± 0.0048
CASGKVCVRFCW	0.683 ± 0.033
CDWQMMKVQERS	0.698 ± 0.021
RYTTCPVLNPGV	0.618 ± 0.018
VWVWATGWGARG	0.7369 ± 0.0038
GSSAVGGGGVWW	0.819 ± 0.1
KKQKKKKTQTNK	0.68224 ± 0.00034
LIFKLQLPSPWL	0.643 ± 0.042
LPVPFFPPCPFR	0.732 ± 0.012
AGIGWGDLASPG	0.681 ± 0.025
LLSGPTLSCVPT	0.617 ± 0.043
PRFKPSRSTPAD	0.675 ± 0.031
GLGKWGGGGDER	0.723 ± 0.012

Sequence	protein stability index
LPPPLLPTPMAP	0.661 ± 0.09
VFGSGLRATGAV	0.635 ± 0.086
SCGYRGSSAFSF	0.62 ± 0.2
SPPALPPFLAPL	0.72 ± 0.1
KKTSKTERDQKE	0.639 ± 0.015
PLPPPGRPPLLP	0.639 ± 0.12
PPTANPMLPPPF	0.651 ± 0.055
KWGVWLWVGGGG	0.763 ± 0.056
CRPVPGGLFVVS	0.669 ± 0.064
LSLGGSPSKRRP	0.648 ± 0.029
APPPPAPPPLRP	0.724 ± 0.05
KTKKKKEQTKKK	0.808 ± 0.15
GNFYFSGSGFFI	0.709 ± 0.031
PPLIPPSCSPLH	0.6864 ± 0.0027
DEIRGERETKGR	0.656 ± 0.036
GVWPWWGWSCCF	0.782 ± 0.1
ILVSRQGRGMRS	0.643 ± 0.013
SGGGCVYRGGRG	0.633 ± 0.015
CVLARVWMRGGR	0.636 ± 0.023
PLTPCPSATPAY	0.648 ± 0.021
SLDILVSVDGRL	0.6546 ± 0.001
KIGEVNKKQSII	0.743 ± 0.064
GSGVSDWRCFEG	0.627 ± 0.071
RLPVPRSLWSSN	0.709 ± 0.013
PLSLFPSSQCWS	0.771 ± 0.038

Sequence	protein stability index
RLVGPFSSLRLF	0.649 ± 0.0072
LLPSPLHGCTMS	0.676 ± 0.01
FVGAAALSVWGG	0.645 ± 0.0072
EAWRQGRAGRGP	0.6148 ± 0.0034
LYWSGFCPVFWG	0.7164 ± 0.0027
RRLSGGNLLLLA	0.5914 ± 0.0018
WMCILESWDSVD	0.706 ± 0.099
INKNKKKEKLTK	0.697 ± 0.015
PFSVDLPWPPWE	0.806 ± 0.053
SPRVLSLLLRSM	0.5811 ± 0.0036
HPFASRSRFTPR	0.753 ± 0.063
LLLVRNCQDSRQ	0.69 ± 0.057
LLCSLRPLAVPP	0.602 ± 0.039
KKETKSNCRIKN	0.708 ± 0.017
YTQVSSRGINID	0.734 ± 0.029
WPSMFFSIEESW	0.887 ± 0.042
FFLLPHPSRFFP	0.734 ± 0.025
VTLTPPVLYTSL	0.647 ± 0.059
GWAFGVRGMIKK	0.74 ± 0.043
AWGGRVGWPKRR	0.734 ± 0.052
LSHIPDRQRLKP	0.715 ± 0.062
AARYSRSPRTCF	0.6507 ± 0.0059
RWGWGGYRGGVP	0.7572 ± 0.0061
GWVGGCGGGRGI	0.683 ± 0.0092
THHQDGGRAAVR	0.67913 ± 0.00062

Sequence	protein stability index
AYRLWQTESKFD	0.699 ± 0.057
VSLPTAPFPLPS	0.844 ± 0.084
ARNGVCTERSVL	0.691 ± 0.028
QTSWLKKTIKRE	0.678 ± 0.072
IVAWQGRNLTPL	0.655 ± 0.12
NTTTTKNRTPKR	0.6952 ± 0.0063
PGRSMCITLVKT	0.595 ± 0.0078
PACPLISPIGRF	0.673 ± 0.05
LPLPPPPLLPAP	0.732 ± 0.057
SAIAVDSPLGRG	0.653 ± 0.023
RLPVIPRLIPSS	0.635 ± 0.028
NRSKNKKIIREI	0.6341 ± 0.0056
SGHELLGSVFRR	0.681 ± 0.076
IFPFKDDVPFVS	0.684 ± 0.0015
TKRKKLEIGFLR	0.625 ± 0.079
SCTRASSMSLSP	0.674 ± 0.024
VGHGGCCGWGCG	0.786 ± 0.1
KQKKKKKEYKKK	0.676 ± 0.027
EWPTESSLSSET	0.689 ± 0.081
VVRSDFCFFFGI	0.754 ± 0.065
PLPPRPAPPSSS	0.681 ± 0.015
